Assay [1] has as its target T1, CD40-Fc (human, UniProt P25942).
T1 construct: part fused to Fc; staining reagent of the flow cytometry; also called recombinant human CD40-Fc antigen protein
Briefly: flow cytometry of T cells co-electroporated with 15 µg diabody mRNA and 2 µg M12 CAR mRNA; CD40-Fc + PE-anti-Fc; E1 without mRNA: 0.56.

Assay [2] has as its target T1, CD40-Fc. Briefly: flow cytometry of T cells co-electroporated with 15 µg diabody mRNA and 0.5 µg 4D5.BBZ mRNA; CD40-Fc + PE-anti-IgG-Fc; E1 without mRNA: 0.27.

B1: 4.5 (bispecific antibody)
scFv-G4S-scFv: QVQLVQSGAEVKKPGSSVKVSCKASGGTFSSYAISWVRQAPGQGLEWMGMINPSGGTTSYAQKFQGRVTMTRDTSTSTVYMELSSLRPEDTAVYYCARGFRMDQWGQGTLVTVSSGGGGSGGGGSGGGGSQSALTQPPSASGSPGQSVTISCTGTSSDVGAYNFVSWYQQHPGNAPKLIIYDVRKRPSGIPDRFSASKSGNTASLTVSGLQADDEADYYCSSYAGNNNLVFGGGTKLTVLGGGGSDIQLTQSPSSLSVSVGDRVTISCRASESVEYYVTSLMQWYQQKPGQAPKLLIFAASNVESGVPSRFSGSGSGTNFTLTISSVQEEDFAMYFCQQSRKVPYTFGGGTKLEIKGGGGSGGGGSGGGGSQVKLQESGPGLVKPSETLSITCTVSGFSLSDYGVHWVRQSPGKGLEWLGVIWAGGGTNYNSALMSRKTISKDNSKSQVFLKMSSLTAADTAVYYCARDKGYSYYYSMDYWGQGTTVTVSS
notes: expressed from mRNA in T cells
For B1, the “% of cells in the positive gate” value with CD40-Fc [1] is 65; with CD40-Fc [2], 72.2.

B2: 4.4 (bispecific antibody)
scFv-G4S-scFv: QVKLQESGPGLVKPSETLSITCTVSGFSLSDYGVHWVRQSPGKGLEWLGVIWAGGGTNYNSALMSRKTISKDNSKSQVFLKMSSLTAADTAVYYCARDKGYSYYYSMDYWGQGTTVTVSSGGGGSGGGGSGGGGSDIQLTQSPSSLSVSVGDRVTISCRASESVEYYVTSLMQWYQQKPGQAPKLLIFAASNVESGVPSRFSGSGSGTNFTLTISSVQEEDFAMYFCQQSRKVPYTFGGGTKLEIKGGGGSQVQLVQSGAEVKKPGSSVKVSCKASGGTFSSYAISWVRQAPGQGLEWMGMINPSGGTTSYAQKFQGRVTMTRDTSTSTVYMELSSLRPEDTAVYYCARGFRMDQWGQGTLVTVSSGGGGSGGGGSGGGGSQSALTQPPSASGSPGQSVTISCTGTSSDVGAYNFVSWYQQHPGNAPKLIIYDVRKRPSGIPDRFSASKSGNTASLTVSGLQADDEADYYCSSYAGNNNLVFGGGTKLTVL
notes: as for B1
As to B2, the figures for the “% of cells in the positive gate” value with CD40-Fc [1] and with CD40-Fc [2] were 51 and 55.4, respectively.

B3: 4.1 (bispecific antibody)
scFv-G4S-scFv: DIQLTQSPSSLSVSVGDRVTISCRASESVEYYVTSLMQWYQQKPGQAPKLLIFAASNVESGVPSRFSGSGSGTNFTLTISSVQEEDFAMYFCQQSRKVPYTFGGGTKLEIKGGGGSGGGGSGGGGSQVKLQESGPGLVKPSETLSITCTVSGFSLSDYGVHWVRQSPGKGLEWLGVIWAGGGTNYNSALMSRKTISKDNSKSQVFLKMSSLTAADTAVYYCARDKGYSYYYSMDYWGQGTTVTVSSGGGGSQSALTQPPSASGSPGQSVTISCTGTSSDVGAYNFVSWYQQHPGNAPKLIIYDVRKRPSGIPDRFSASKSGNTASLTVSGLQADDEADYYCSSYAGNNNLVFGGGTKLTVLGGGGSGGGGSGGGGSQVQLVQSGAEVKKPGSSVKVSCKASGGTFSSYAISWVRQAPGQGLEWMGMINPSGGTTSYAQKFQGRVTMTRDTSTSTVYMELSSLRPEDTAVYYCARGFRMDQWGQGTLVTVSS
notes: as for B1
Regarding B3, the “% of cells in the positive gate” value in the assay with CD40-Fc [1] is 95.8; with CD40-Fc [2], 95.3.

B4: 4.7 (bispecific antibody)
scFv-G4S-scFv: QSALTQPPSASGSPGQSVTISCTGTSSDVGAYNFVSWYQQHPGNAPKLIIYDVRKRPSGIPDRFSASKSGNTASLTVSGLQADDEADYYCSSYAGNNNLVFGGGTKLTVLGGGGSGGGGSGGGGSQVQLVQSGAEVKKPGSSVKVSCKASGGTFSSYAISWVRQAPGQGLEWMGMINPSGGTTSYAQKFQGRVTMTRDTSTSTVYMELSSLRPEDTAVYYCARGFRMDQWGQGTLVTVSSGGGGSQVKLQESGPGLVKPSETLSITCTVSGFSLSDYGVHWVRQSPGKGLEWLGVIWAGGGTNYNSALMSRKTISKDNSKSQVFLKMSSLTAADTAVYYCARDKGYSYYYSMDYWGQGTTVTVSSGGGGSGGGGSGGGGSDIQLTQSPSSLSVSVGDRVTISCRASESVEYYVTSLMQWYQQKPGQAPKLLIFAASNVESGVPSRFSGSGSGTNFTLTISSVQEEDFAMYFCQQSRKVPYTFGGGTKLEIK
notes: as for B1
As for B4, the “% of cells in the positive gate” value was 95.8 with CD40-Fc [1] and 96.1 in the assay with CD40-Fc [2].

B5: 4.2 (bispecific antibody)
scFv-G4S-scFv: DIQLTQSPSSLSVSVGDRVTISCRASESVEYYVTSLMQWYQQKPGQAPKLLIFAASNVESGVPSRFSGSGSGTNFTLTISSVQEEDFAMYFCQQSRKVPYTFGGGTKLEIKGGGGSGGGGSGGGGSQVKLQESGPGLVKPSETLSITCTVSGFSLSDYGVHWVRQSPGKGLEWLGVIWAGGGTNYNSALMSRKTISKDNSKSQVFLKMSSLTAADTAVYYCARDKGYSYYYSMDYWGQGTTVTVSSGGGGSQVQLVQSGAEVKKPGSSVKVSCKASGGTFSSYAISWVRQAPGQGLEWMGMINPSGGTTSYAQKFQGRVTMTRDTSTSTVYMELSSLRPEDTAVYYCARGFRMDQWGQGTLVTVSSGGGGSGGGGSGGGGSQSALTQPPSASGSPGQSVTISCTGTSSDVGAYNFVSWYQQHPGNAPKLIIYDVRKRPSGIPDRFSASKSGNTASLTVSGLQADDEADYYCSSYAGNNNLVFGGGTKLTVL
notes: as for B1
Regarding B5, the “% of cells in the positive gate” value worked out at 97.7 in the assay with CD40-Fc [1] and 98.2 in the assay with CD40-Fc [2].

B6: 4.8 (bispecific antibody)
scFv-G4S-scFv: QSALTQPPSASGSPGQSVTISCTGTSSDVGAYNFVSWYQQHPGNAPKLIIYDVRKRPSGIPDRFSASKSGNTASLTVSGLQADDEADYYCSSYAGNNNLVFGGGTKLTVLGGGGSGGGGSGGGGSQVQLVQSGAEVKKPGSSVKVSCKASGGTFSSYAISWVRQAPGQGLEWMGMINPSGGTTSYAQKFQGRVTMTRDTSTSTVYMELSSLRPEDTAVYYCARGFRMDQWGQGTLVTVSSGGGGSDIQLTQSPSSLSVSVGDRVTISCRASESVEYYVTSLMQWYQQKPGQAPKLLIFAASNVESGVPSRFSGSGSGTNFTLTISSVQEEDFAMYFCQQSRKVPYTFGGGTKLEIKGGGGSGGGGSGGGGSQVKLQESGPGLVKPSETLSITCTVSGFSLSDYGVHWVRQSPGKGLEWLGVIWAGGGTNYNSALMSRKTISKDNSKSQVFLKMSSLTAADTAVYYCARDKGYSYYYSMDYWGQGTTVTVSS
notes: as for B1
Consider B6, for which the “% of cells in the positive gate” value is 88.5 in the assay with CD40-Fc [1] and 90.2 with CD40-Fc [2].

B7: 4.3 (bispecific antibody)
scFv-G4S-scFv: QVKLQESGPGLVKPSETLSITCTVSGFSLSDYGVHWVRQSPGKGLEWLGVIWAGGGTNYNSALMSRKTISKDNSKSQVFLKMSSLTAADTAVYYCARDKGYSYYYSMDYWGQGTTVTVSSGGGGSGGGGSGGGGSDIQLTQSPSSLSVSVGDRVTISCRASESVEYYVTSLMQWYQQKPGQAPKLLIFAASNVESGVPSRFSGSGSGTNFTLTISSVQEEDFAMYFCQQSRKVPYTFGGGTKLEIKGGGGSQSALTQPPSASGSPGQSVTISCTGTSSDVGAYNFVSWYQQHPGNAPKLIIYDVRKRPSGIPDRFSASKSGNTASLTVSGLQADDEADYYCSSYAGNNNLVFGGGTKLTVLGGGGSGGGGSGGGGSQVQLVQSGAEVKKPGSSVKVSCKASGGTFSSYAISWVRQAPGQGLEWMGMINPSGGTTSYAQKFQGRVTMTRDTSTSTVYMELSSLRPEDTAVYYCARGFRMDQWGQGTLVTVSS
notes: as for B1
With B7, the “% of cells in the positive gate” value with CD40-Fc [1] worked out at 36.3; in the assay with CD40-Fc [2], 43.5.

B8: 4.6 (bispecific antibody)
scFv-G4S-scFv: QVQLVQSGAEVKKPGSSVKVSCKASGGTFSSYAISWVRQAPGQGLEWMGMINPSGGTTSYAQKFQGRVTMTRDTSTSTVYMELSSLRPEDTAVYYCARGFRMDQWGQGTLVTVSSGGGGSGGGGSGGGGSQSALTQPPSASGSPGQSVTISCTGTSSDVGAYNFVSWYQQHPGNAPKLIIYDVRKRPSGIPDRFSASKSGNTASLTVSGLQADDEADYYCSSYAGNNNLVFGGGTKLTVLGGGGSQVKLQESGPGLVKPSETLSITCTVSGFSLSDYGVHWVRQSPGKGLEWLGVIWAGGGTNYNSALMSRKTISKDNSKSQVFLKMSSLTAADTAVYYCARDKGYSYYYSMDYWGQGTTVTVSSGGGGSGGGGSGGGGSDIQLTQSPSSLSVSVGDRVTISCRASESVEYYVTSLMQWYQQKPGQAPKLLIFAASNVESGVPSRFSGSGSGTNFTLTISSVQEEDFAMYFCQQSRKVPYTFGGGTKLEIK
notes: as for B1
For the molecule B8, the “% of cells in the positive gate” value in the assay with CD40-Fc [1] stood at 97.9; with CD40-Fc [2], 98.5.
